T1: recombinant human ASM protein (human, UniProt P17405 47-630)
T1 construct: Recombinant human ASM in solution; also called acid sphingomyelinase (ASM) protein
T1 sequence: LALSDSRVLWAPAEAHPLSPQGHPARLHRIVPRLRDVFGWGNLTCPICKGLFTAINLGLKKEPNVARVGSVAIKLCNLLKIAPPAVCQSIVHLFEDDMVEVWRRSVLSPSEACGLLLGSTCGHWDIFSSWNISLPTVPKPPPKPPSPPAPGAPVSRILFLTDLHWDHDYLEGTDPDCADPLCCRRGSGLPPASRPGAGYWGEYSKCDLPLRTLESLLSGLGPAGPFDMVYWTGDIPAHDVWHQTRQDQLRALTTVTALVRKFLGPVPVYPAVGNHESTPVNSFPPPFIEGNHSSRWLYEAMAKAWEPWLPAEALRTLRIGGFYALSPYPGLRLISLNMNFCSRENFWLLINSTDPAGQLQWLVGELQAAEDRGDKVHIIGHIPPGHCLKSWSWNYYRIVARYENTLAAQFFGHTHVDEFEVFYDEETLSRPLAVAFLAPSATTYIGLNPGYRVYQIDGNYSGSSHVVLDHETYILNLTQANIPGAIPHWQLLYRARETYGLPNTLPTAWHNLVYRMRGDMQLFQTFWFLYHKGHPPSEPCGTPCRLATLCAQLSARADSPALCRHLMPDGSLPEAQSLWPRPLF


Biological target: T1, recombinant human ASM protein
Assay: BLI (Octet), antibody on AHC sensor
Protocol: The binding affinity, to the ASM protein, of the produced antibodies specifically binding to the ASM protein and the interactive dynamics therebetween were measured using an Octet® QK384 system (Pall Life Sciences).
First, an antibody specifically binding to the ASM protein produced in Example 1 was captured using an anti-human IgG Fc capture (AHC) biosensor, and 1.25, 2.5, 5, 10, or 20 nM recombinant human ASM protein solution was added thereto. […] The association constant (Kₐ), dissociation constant (Kd), and equilibrium dissociation constant (KD) for each antibody were determined using Octet® analysis software (Pall Life® Sciences). As a result, the binding affinities, to the human ASM protein, of the antibodies with mutations in the heavy chain CDR regions of the antibody #9104 as depicted in Table 1 are shown in Table 5, and the binding affinities, to the human ASM protein, of the antibodies with mutations of the light chain CDR regions in the antibody #9104 as depicted in Table 2 are shown in Table 6.

| Binder | Kd [nM] | koff [s⁻¹] | kon [M⁻¹ s⁻¹] |
| --- | --- | --- | --- |
| #9104v-L47 (antibody, human IgG4 S228P, lambda, V domains shown, Full-length IgG, lambda) VH: EVQLLESGGGLVQPGGSLRLSCAASGFTFSNYYMSWVRQAPGKGLEWVSGIYYGSGNIYYADSVKGRFTISRDNSKNTLYLQMNSLRAEDTAVYYCARDTPGFDYWGQGTLVTVSS VL: QSVLTQPPSASGTPGQRVTISCTGSSSNIGNNAVNWYQQLPGTAPKLLIYYDSYTPSGVPDRFSGSKSGTSASLAISGLRSEDEADYYCGAWDYSLSAYVFGGGTKLTVLG | 1.41 | 0.000415 | 294000 |
| #9104v-L63 (antibody, human IgG4 S228P, lambda, V domains shown, Full-length IgG, lambda) VH: EVQLLESGGGLVQPGGSLRLSCAASGFTFSNYYMSWVRQAPGKGLEWVSGIYYGSGNIYYADSVKGRFTISRDNSKNTLYLQMNSLRAEDTAVYYCARDTPGFDYWGQGTLVTVSS VL: QSVLTQPPSASGTPGQRVTISCTGSSSNIGNNAVNWYQQLPGTAPKLLIYYDSHRPSGVPDRFSGSKSGTSASLAISGLRSEDEADYYCGAWDYWLGAYVFGGGTKLTVLG | 1.41 | 0.000255 | 181000 |
| #9104v-L55 (antibody, human IgG4 S228P, lambda, V domains shown, Full-length IgG, lambda) VH: EVQLLESGGGLVQPGGSLRLSCAASGFTFSNYYMSWVRQAPGKGLEWVSGIYYGSGNIYYADSVKGRFTISRDNSKNTLYLQMNSLRAEDTAVYYCARDTPGFDYWGQGTLVTVSS VL: QSVLTQPPSASGTPGQRVTISCTGSSSNIGNNAVNWYQQLPGTAPKLLIYYDWYRPTGVPDRFSGSKSGTSASLAISGLRSEDEADYYCGAWDYSLSAYVFGGGTKLTVLG | 0.879 | 0.00017 | 193000 |
| #9104v-L49 (antibody, human IgG4 S228P, lambda, V domains shown, Full-length IgG, lambda) VH: EVQLLESGGGLVQPGGSLRLSCAASGFTFSNYYMSWVRQAPGKGLEWVSGIYYGSGNIYYADSVKGRFTISRDNSKNTLYLQMNSLRAEDTAVYYCARDTPGFDYWGQGTLVTVSS VL: QSVLTQPPSASGTPGQRVTISCTGSSSNIGNNAVNWYQQLPGTAPKLLIYYDTFRPTGVPDRFSGSKSGTSASLAISGLRSEDEADYYCGAWDYSLSAYVFGGGTKLTVLG | 0.785 | 0.000225 | 286000 |
| #9104v-L64 (antibody, human IgG4 S228P, lambda, V domains shown, Full-length IgG, lambda) VH: EVQLLESGGGLVQPGGSLRLSCAASGFTFSNYYMSWVRQAPGKGLEWVSGIYYGSGNIYYADSVKGRFTISRDNSKNTLYLQMNSLRAEDTAVYYCARDTPGFDYWGQGTLVTVSS VL: QSVLTQPPSASGTPGQRVTISCTGSSSNIGNNAVNWYQQLPGTAPKLLIYYDYFSHSGVPDRFSGSKSGTSASLAISGLRSEDEADYYCGAWDYSLSAYVFGGGTKLTVLG | 0.505 | 0.000193 | 383000 |
| #9104v-L65 (antibody, human IgG4 S228P, lambda, V domains shown, Full-length IgG, lambda) VH: EVQLLESGGGLVQPGGSLRLSCAASGFTFSNYYMSWVRQAPGKGLEWVSGIYYGSGNIYYADSVKGRFTISRDNSKNTLYLQMNSLRAEDTAVYYCARDTPGFDYWGQGTLVTVSS VL: QSVLTQPPSASGTPGQRVTISCTGSSSNIGNNAVNWYQQLPGTAPKLLIYYDYYQSSGVPDRFSGSKSGTSASLAISGLRSEDEADYYCGAWDYSLSAYVFGGGTKLTVLG | 0.532 | 0.000192 | 360000 |
| #9104v-L52 (antibody, human IgG4 S228P, lambda, V domains shown, Full-length IgG, lambda) VH: EVQLLESGGGLVQPGGSLRLSCAASGFTFSNYYMSWVRQAPGKGLEWVSGIYYGSGNIYYADSVKGRFTISRDNSKNTLYLQMNSLRAEDTAVYYCARDTPGFDYWGQGTLVTVSS VL: QSVLTQPPSASGTPGQRVTISCTGSSSNIGNNAVNWYQQLPGTAPKLLIYYDVHRPRGVPDRFSGSKSGTSASLAISGLRSEDEADYYCGAWDYSLSAYVFGGGTKLTVLG | 0.982 | 0.000264 | 269000 |

Source: patent US20260201064A1 (ISU ABXIS, published 2026)
